Measurements reported in the supplement of paper PMC9942255.
Values joined by “and” are separate entries in the source; they are usually repeats but may differ in a detail not shown here. Identical values can stand only once.

Test system: Bacillus subtilis DB104 (SP-AmyQ fusion secretion)
Experiment: AmyQ secretion efficiency, weighted average sort bin (1 = best secretion, 10 = worst) (bin number (weighted average, 1-10)); higher = lower secretion efficiency
Summary of the method: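 Designed signal peptides were fused to mature AmyQ and expressed from the amyE locus in B. subtilis DB104, and this library was loaded at about 0.3 cells per ~65 nL alginate bead together with fluorescein-starch. After about 13 h of growth at room temperature and nile red staining, occupied beads were split into 10 equally populated bins by green/red fluorescence ratio using large-particle flow cytometry. Amplicons from every bin were Illumina-sequenced. The secretion score is the average bin number weighted by read frequency and normalised to beads per bin, excluding low-abundance sequences.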

| Sequence | AmyQ secretion efficiency |
| --- | --- |
| MKSKGSIMACLILFSFTITEISAFSN | 6.82 |
| MRSYIKVLTMCFLGLILFVKRRKRRALADNS | 7.48 |
| MKKVLMAFIICLSLILSVLAAPPSGIKAESV | 3.36 |
| MKLSVKIAGVLTVAAAAMTAKMYATQKGN | 7.51 |
| MMIKQCVICLSLLVFGTTAAHAARR | 5.39 |
| MPYLKRVLLLLVTGLFMSLFAVTATASRQTG | 1.19 |
| MKRLLVSLRVWMVFLMNWVTPDRKTGAAAVY | 6.91 |
| MKRQRLLVSLRVWMVFLMNWVTPDRKTAAAAVY | 6.95 |
| MVKKWLIQFAVMLSVLSKKRRKKASAVGV | 7.67 |
| MPKKCSVCLWILVLLLSCLSGKSAYAATS | 2.99 |
| MNLRKILLSSALSLGMLVSAAPVLSTSS | 4.72 |
| MFNRLFRVCFLAALIMAFTLPNSVYMQKP | 7.02 |
| MMGVLLSALLLLLFAFEPSASGKKL | 6.16 |
| MKKGIIRFLLVSFVLFFALSTGITGSQAAPA | 4.62 |
| MKRFSTAYTTGGILCSAAVFLIGAPSRALGAEV | 8.46 |
| MKKKLAAGLTASAIVGTTLVVTPFEAATI | 5.7 |
| MNKPTKLFSTLALAAGMTLIAAAAGGAGTIHAQQP | 1.83 |
| MNKKYFVLIVCIIFTSALFPTFSSVTAAQR | 1.45 |
| MRPVFPLILSAVLFLSCFFGARQTESFASASKR | 4.97 |
| MKVLLSALLLLLFAFEPSASDKKL | 6.18 |
| MIKRFSLIMMTGLLFGLTSPAFAAEK | 4.15 |
| MLKKVILAAFILVGSTLGAFSFSSDASAARK | 2.12 |
| MKNRKRKLVVSVTLFFSFLTIGPLAHAQNS | 1.21 |
| MMTTIFAFLTGLMMFGTITAASASPD | 4.48 |
| MKRLLVSLRVWMVFLMNWVTPDRKTAAAAVD | 7.62 |
| MKLAKRVSALTPSTTLAITAKDKEL | 6.63 |

| Sequence | AmyQ secretion efficiency |
| --- | --- |
| MKIRKILLSSALSFGMLISAVPALAAGR | 2.62 |
| MKSKGSIMACLILFSFTITTVTFINTETISAFSN | 5.25 |
| MKKTIMSFVAVAALSTTAFGAHRSAKEI | 5.69 |
| MTGGSAVLLSLIMLIAGFLISFSFQM | 7.63 |
| MSVCQKSIVRFLVSLIIGTFVISVPFMANAQSD | 1.68 |
| MPIKKKVMMCLAVTLVFGSMSFPTLTNSGEFKE | 5.74 |
| MIVIILLFISIIVFLSVIQPQPD | 4.48 |
| MPIKKKVMMCKRVTLVFGSMSFPTLTNSGGFKE | 6.57 |
| MKLRKVLTGSVLSLGLLKRRRKKAFATSP | 5.35 |
| MKRIRIPMTLALGAALTIAPLSFASNEEN | 7.9 |
| MKKKRKRLAAGLTASAIVGTTLVVTPAEAATI | 2.55 |
| MKLKSKLLLSCLALSTVFVLFSTATTIANAPTH | 4.84 |
| MKKWIYVVLVLSIAGIGGFSVHAASR | 5.28 |
| MKKQIITATTAVVLGSTLFAGAASAKRK | 2.25 |
| MKFVKRRIIALVTILMLSVTSLFADEEEAKAAEH | 2.36 |
| MPIKKKVMMCLAVTLVFGSMSFPTLTNKGGFKE | 7.01 |
| MKVLLSALLLLLFAFEPSASVKKL | 6.34 |
| MRFTKVVGFLSVLGLAATTTFIVFPLTAQAEKA | 1.5 |
| MKLWMRKTLVVLFTIVTFGLVSPPAALMFDKP | 3.85 |
| MMIKQCKKCLSLLVFGTTAAHAEET | 7.22 |
| MKRLLVSLRVWMVFLMNWVTPDRKTHAAAVY | 6.55 |
| MFNRLFRVCFLAALIMAFTLPNSVVTSVYAQKP | 2.32 |
| MKKLIMALVILGALGTSYISADSS | 6.77 and 6.15 |
| MRKKHQTISLLIIFLLASAVLAKPIEAHTV | 2.69 |
| MKKSQYSRQSKCTFVLFSVHPIAAAAADS | 7.33 |
| MKKTLAAGIIGLLTVSIASPSFAAEK | 2.62 |

| Sequence | AmyQ secretion efficiency |
| --- | --- |
| MKRFSTAYLLLGILCSAAVFLIGAPSRALCAEV | 3.3 |
| MKKRITYSFTMMLLALLAVVAFAFTDSSKAKAAEA | 1.93 |
| MLKKKWMVGLLAGCLAAGGFSYNAFTTEN | 6.95 |
| MNFKKTGVSALSISALALSVSGVASAHEI | 3.9 |
| MRGKSAVLLSLIMLIAGFLQQSFSFQM | 7.38 |
| MKRTWNVCLTALLSVLLVAGSVPFHAEAKKK | 2.67 |
| MKTKTLFIFSAILTLSIFAPNTTFAQTA | 2 |
| MTKKAWFLPLVCVLLISGWLAPAASASNQTT | 2.2 |
| MKQFAITLSVLCALILLVPTLLVIPFQHNKEAMASV | 6.87 |
| MKRKRLLSTLLIGIMLLTFAPSAFAKQD | 1.87 |
| MRGKSIAVLLSLIMLIAGFLISFSFQM | 5.87 |
| MKKRLIAPMLLSAASLAFFAMSGSIQAAAY | 6.12 |
| MRGKSAVLLSLIMLIAGFLDDDEEDSFSFQM | 8.01 |
| MHLIRAAGAVCLAVVLIAGCRKRRRQHQAEGENT | 6.76 |
| MSKKTWMVGLLAGCLAAGGFSYNAFATEN | 4.68 |
| MNKFLKSNFRFKRAAALGISLLASSNFIKASND | 3.29 |
| MKKTIMSQKQTAALSTTAFGAHASAKEI | 7.42 |
| MKKKQVMLALTAAAGLGLTALHSAPAAKPAPL | 4.99 |
| MKKKQVMLALTAAAGLGLTALKHKKKKAKAAPL | 6.6 |
| MFNRLFRVCFLAALIMAFTLPNSVYTQKP | 4.86 |
| MKKVLMAFIICLSLILSVLAAPPSGAKGESV | 2.46 |
| MFNLQVMLALTAAAGLGLTALHSAPAAKAAPL | 3.11 |
| MKKRFFGPIILAFILFAGAIAIEE | 6.41 |
| MKKAAAVLLSLGLVFGFSYGAEAKTK | 2.21 |
| MKLKKRVSMFLVALTMCGGLFVTPQAKAVKT | 3.89 |
| MGLGKKLSVAVAASFMSLSISLPGVQAEDD | 4.28 |

| Sequence | AmyQ secretion efficiency |
| --- | --- |
| MKKTIMSFVAVAALSTTAFGAHASRKEI | 4.66 |
| MKTKTFLFIFSAILTLSIFAPNETFAQTA | 2.73 |
| MKIRKIRRRKALSFGMLISAVPALAAGT | 5.54 |
| MLKKKWMVGLLAGCLAAGDDEYNAFATEN | 4.98 |
| MKLAKRVSALTPSTTLAITEKAKEL | 7.31 |
| MLKKKWMVGLLAGCLAAGEEPYNAFATEN | 4.04 |
| MMKKGLLAGALTATVLFGTCAVDVPGIISPKTAEAAKR | 4.03 |
| MKNMSCKLVVSVTLFFSFLTIGPLHHAQNS | 5.75 |
| MPINTFVMMCLAVTLVFGSMSFPTLTNSGGFKE | 7.23 |
| MRPLILSAVLFLSCFFGARQTEASASKR | 3.63 |
| MLKKIALTLCPAIVGSLLFFTAPASTHVS | 5.85 |
| MKKIVSILFMFGLVMSIISLGFSQFQPSTVFAADK | 2.96 |
| MRFTKVVGFLSVLGLAAVFPLTAQREKA | 5.37 |
| MKRTWNTTTVCLTALLSVLLVAGSVPFHAEAKKP | 2.17 |
| MTMSSGMSSILAVSVLLLLSRLPVQASLTSE | 4.1 |
| MKLKSKLLLSCLALSTVFVATTIANNPTH | 5.17 |
| MKLAKRVSALTPSTTLAITNKAKEL | 7.12 |
| MLMSIALTLCPAIVGSLLFFTAPASAHVS | 4.17 |
| MKWYRRRQRCSICCAAVLLAGGAAQAEAV | 4.99 |
| MLKRTSFVSSLFISSAVLLSILLGSGQAHAQSA | 2.06 |
| MKKRLIGFLVLVPALIMSGITLIESNKK | 5.98 |
| MGLGKKLSVAVAASFMSLSISLPGTQAAEG | 1.77 |
| MKKVLMAFIICLSLILSVLAAPPSGSKAESV | 3.67 |
| MGLGKKLSVAVAASFMSLSISLPGVQRAEG | 2.64 |
| MKMKSGMEQAVSVLLLLSRLPVQASLTSD | 6.62 |
| MKRLFMKASLVLFAVVFVFAVKGADEEDEEEAKAETH | 7.15 |

| Sequence | AmyQ secretion efficiency |
| --- | --- |
| MGSRTIWTIILGALLVCCIAVAYTLTKSQAGASSS | 5.01 |
| MKRIRIPMTYRYQSALTIAPLSFASAEEN | 7.35 |
| MFTNHTISLLIIFLLASAVLAKPIEAHTV | 2.28 |
| MKIRKIKKSSALSFGMLISAVPALAAGT | 4.2 |
| MNKLKRLSMLTVMIASVFIFSSHALAADD | 4.21 |
| MKLSVKIAGVLTVAAAAMTAKMYFFPAATAKGN | 6.16 |
| MKKKRRRVLMAFIICLSLILSVLAAPPSGAKAESV | 2 |
| MKRLFMKASLVLFAVVFVFAVKGAPTKAETH | 2.27 |
| MKLAKRVRRKRPSTTLAITAKAKEL | 6.87 |
| MKKRFFGPIILAFILFAGAIAKKK | 7.24 |
| MGLGKKLSVAVAASFMSLSISLPGVAAGFVFVQAAEG | 4.93 |
| MKKCLLFLTTIALILSLSTNAFAANE | 1.03 |
| MRKKLKWLSFKRRRKRLLFLFKYQFSNNDS | 8.72 |
| MRGKSAVLLSLIMLIAGFLISFMFQM | 7.73 |
| MKKSQYFIVFICFFVLFSVHPIAEAAADS | 3.62 |
| MKRLLVSLRVWMVFLMNWVTPDRKTEAAAVY | 6.9 |
| MTKKAWFLPLVCVLLISGWLAPAASASAQTD | 1.97 |
| MRKRRKRGIQAFAGGIILATAVLAAVFYLTDEDQAAAV | 6.73 |
| MRMLWRGQKSCGTYLTLAPCAQAAEP | 7.51 |
| MHLIRAAGAVCLAVVLIAGCRFNEDQHQAEGENT | 5.94 and 6.42 |
| MLFKKWMVGLLAGCLAAGGFSYNAFATEN | 4.2 |
| MKRFLIGAGVAAVILSGWFIADHQKHSQEM | 5.36 |
| MRRSLALCGLALTLAPCAQAAEP | 2.27 |
